Experimental data as given in the supplement of paper PMC9112550, “Optimization of the antimicrobial peptide Bac7 by deep mutational scanning” (BMC Biology, 2022).

Each sequence was assayed on Escherichia coli TOP10 (assay: shrunken log2 fold change of peptide-encoding DNA abundance (4.5 h post-induction vs induction); higher = less antimicrobial activity (less host growth inhibition)). Conditions: time post-induction: 4.5 h; library: site-saturation at positions 5, 18, 19, 20.
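Further: peptides expressed intracellularly from a pBAD plasmid library in pooled LB shake-flask culture, induced with 0.3% L-arabinose, DNA abundance read by NGS, three biological replicates, DESeq2 with apeglm shrinkage.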

Sequence | shrunken log2 fold change
RRIRKRPPRLPRPRPRPGADPRP | 0.709
RRIRKRPPRLPRPRPRPGESPRP | 0.0841
RRIRKRPPRLPRPRPRPGGRPRP | 1.91
RRIRKRPPRLPRPRPRPGIIPRP | -0.000605
RRIRKRPPRLPRPRPRPGIVPRP | 0.0403
RRIRKRPPRLPRPRPRPGLGPRP | 0.406
RRIRKRPPRLPRPRPRPGLHPRP | 0.0334
RRIRKRPPRLPRPRPRPGLPPRP | 0.348
RRIRKRPPRLPRPRPRPGLSPRP | 0.0644
RRIRKRPPRLPRPRPRPGNYPRP | -0.113
RRIRKRPPRLPRPRPRPGPNPRP | 0.795
RRIRKRPPRLPRPRPRPGPSPRP | 2.27
RRIRKRPPRLPRPRPRPGPYPRP | 0.104
RRIRKRPPRLPRPRPRPGQVPRP | 0.00902
RRIRKRPPRLPRPRPRPGRCPRP | 0.586
RRIRKRPPRLPRPRPRPGSIPRP | 0.00442
RRIRKRPPRLPRPRPRPGVAPRP | 0.892
RRIRKRPPRLPRPRPRPGVQPRP | 0.228
RRIRKRPPRLPRPRPRPGWCPRP | 0.639
RRIRKRPPRLPRPRPRPGWWPRP | 0.0245
RRIRKRPPRLPRPRPRPGYVPRP | -0.0738
RRIRKRPPRLPRPRPRPHADPRP | 0.0566
RRIRKRPPRLPRPRPRPHAIPRP | -0.142
RRIRKRPPRLPRPRPRPHARPRP | 0.709
RRIRKRPPRLPRPRPRPHFEPRP | 0.101

Sequence | shrunken log2 fold change
RRIRKRPPRLPRPRPRPHFWPRP | 0.188
RRIRKRPPRLPRPRPRPHHAPRP | -0.066
RRIRKRPPRLPRPRPRPHHFPRP | -0.0062
RRIRKRPPRLPRPRPRPHHTPRP | -0.254
RRIRKRPPRLPRPRPRPHIKPRP | -0.0411
RRIRKRPPRLPRPRPRPHINPRP | -0.124
RRIRKRPPRLPRPRPRPHIWPRP | 0.143
RRIRKRPPRLPRPRPRPHKPPRP | -0.0045
RRIRKRPPRLPRPRPRPHKYPRP | -0.448
RRIRKRPPRLPRPRPRPHNGPRP | 0.169
RRIRKRPPRLPRPRPRPHPAPRP | 0.429
RRIRKRPPRLPRPRPRPHPPPRP | 1.27
RRIRKRPPRLPRPRPRPHTMPRP | 0.205
RRIRKRPPRLPRPRPRPHVHPRP | -0.105
RRIRKRPPRLPRPRPRPHVNPRP | 0.0388
RRIRKRPPRLPRPRPRPHYRPRP | 0.0224
RRIRKRPPRLPRPRPRPIARPRP | -0.0481
RRIRKRPPRLPRPRPRPIAVPRP | 0.131
RRIRKRPPRLPRPRPRPICNPRP | 0.102
RRIRKRPPRLPRPRPRPICVPRP | 0.0188
RRIRKRPPRLPRPRPRPICWPRP | 0.239
RRIRKRPPRLPRPRPRPIDHPRP | -0.0104
RRIRKRPPRLPRPRPRPIDNPRP | 0.0107
RRIRKRPPRLPRPRPRPIEDPRP | -0.0345
RRIRKRPPRLPRPRPRPIEFPRP | 0.0427

Sequence | shrunken log2 fold change
RRIRKRPPRLPRPRPRPIFVPRP | 0.471
RRIRKRPPRLPRPRPRPIGEPRP | -0.0126
RRIRKRPPRLPRPRPRPIGSPRP | -0.0113
RRIRKRPPRLPRPRPRPIICPRP | -0.0679
RRIRKRPPRLPRPRPRPIKAPRP | 0.211
RRIRKRPPRLPRPRPRPIKEPRP | -0.0178
RRIRKRPPRLPRPRPRPIMMPRP | -0.0529
RRIRKRPPRLPRPRPRPINGPRP | 0.00103
RRIRKRPPRLPRPRPRPISMPRP | -0.00992
RRIRKRPPRLPRPRPRPITSPRP | 0.22
RRIRKRPPRLPRPRPRPIVEPRP | 0.00111
RRIRKRPPRLPRPRPRPIVGPRP | 0.117
RRIRKRPPRLPRPRPRPIWCPRP | -0.0231
RRIRKRPPRLPRPRPRPIWNPRP | -0.0253
RRIRKRPPRLPRPRPRPKCKPRP | 0.545
RRIRKRPPRLPRPRPRPKELPRP | 0.566
RRIRKRPPRLPRPRPRPKFEPRP | -0.0585
RRIRKRPPRLPRPRPRPKGQPRP | 0.00959
RRIRKRPPRLPRPRPRPKGYPRP | -0.00627
RRIRKRPPRLPRPRPRPKHFPRP | 0.024
RRIRKRPPRLPRPRPRPKHRPRP | 0.237
RRIRKRPPRLPRPRPRPKIEPRP | -0.0694
RRIRKRPPRLPRPRPRPKIMPRP | 0.193
RRIRKRPPRLPRPRPRPKKKPRP | 0.0709
RRIRKRPPRLPRPRPRPKLEPRP | -0.0306

Sequence | shrunken log2 fold change
RRIRKRPPRLPRPRPRPKLRPRP | -0.0198
RRIRKRPPRLPRPRPRPKMRPRP | 0.56
RRIRKRPPRLPRPRPRPKPRPRP | 1.06
RRIRKRPPRLPRPRPRPKPWPRP | 0.526
RRIRKRPPRLPRPRPRPKQQPRP | 0.0737
RRIRKRPPRLPRPRPRPKSCPRP | 0.00967
RRIRKRPPRLPRPRPRPKSIPRP | -0.0265
RRIRKRPPRLPRPRPRPKYYPRP | -0.0776
RRIRKRPPRLPRPRPRPLAFPRP | 0.278
RRIRKRPPRLPRPRPRPLDHPRP | 0.118
RRIRKRPPRLPRPRPRPLDMPRP | 0.0395
RRIRKRPPRLPRPRPRPLECPRP | -0.00691
RRIRKRPPRLPRPRPRPLFMPRP | -0.0207
RRIRKRPPRLPRPRPRPLHCPRP | 0.0213
RRIRKRPPRLPRPRPRPLIAPRP | 0.456
RRIRKRPPRLPRPRPRPLILPRP | -0.265
RRIRKRPPRLPRPRPRPLKHPRP | 0.0711
RRIRKRPPRLPRPRPRPLKRPRP | 0.321
RRIRKRPPRLPRPRPRPLKSPRP | 0.713
RRIRKRPPRLPRPRPRPLMEPRP | 0.124
RRIRKRPPRLPRPRPRPLMSPRP | 0.0201
RRIRKRPPRLPRPRPRPLMVPRP | 0.0242
RRIRKRPPRLPRPRPRPLPYPRP | -0.0627
RRIRKRPPRLPRPRPRPLQNPRP | 0.551
RRIRKRPPRLPRPRPRPLQSPRP | 0.295

Sequence | shrunken log2 fold change
RRIRKRPPRLPRPRPRPLSMPRP | 0.0129
RRIRKRPPRLPRPRPRPLTEPRP | 0.397
RRIRKRPPRLPRPRPRPLTLPRP | 0.0103
RRIRKRPPRLPRPRPRPLWNPRP | 0.109
RRIRKRPPRLPRPRPRPLYAPRP | 0.0609
RRIRKRPPRLPRPRPRPLYSPRP | -0.105
RRIRKRPPRLPRPRPRPMDAPRP | 0.415
RRIRKRPPRLPRPRPRPMEKPRP | -0.0153
RRIRKRPPRLPRPRPRPMFKPRP | -0.0779
RRIRKRPPRLPRPRPRPMFTPRP | -0.0707
RRIRKRPPRLPRPRPRPMHHPRP | -0.126
RRIRKRPPRLPRPRPRPMMEPRP | -0.00277
RRIRKRPPRLPRPRPRPMMIPRP | -0.0134
RRIRKRPPRLPRPRPRPMMPPRP | 0.234
RRIRKRPPRLPRPRPRPMNKPRP | 0.0136
RRIRKRPPRLPRPRPRPMPLPRP | -0.00591
RRIRKRPPRLPRPRPRPMPNPRP | 0.399
RRIRKRPPRLPRPRPRPMQEPRP | 0.0391
RRIRKRPPRLPRPRPRPMQVPRP | 0.175
RRIRKRPPRLPRPRPRPMRCPRP | 1.16
RRIRKRPPRLPRPRPRPMRIPRP | 0.34
RRIRKRPPRLPRPRPRPMRNPRP | 1.32
RRIRKRPPRLPRPRPRPMRTPRP | 3.66
RRIRKRPPRLPRPRPRPMSNPRP | -0.00773
RRIRKRPPRLPRPRPRPMSQPRP | -0.0623

Sequence | shrunken log2 fold change
RRIRKRPPRLPRPRPRPMTGPRP | 0.0188
RRIRKRPPRLPRPRPRPMYRPRP | 0.0629
RRIRKRPPRLPRPRPRPNCGPRP | 0.0611
RRIRKRPPRLPRPRPRPNGDPRP | -0.024
RRIRKRPPRLPRPRPRPNIFPRP | -0.021
RRIRKRPPRLPRPRPRPNITPRP | -0.0249
RRIRKRPPRLPRPRPRPNLRPRP | 0.211
RRIRKRPPRLPRPRPRPNLSPRP | -0.0224
RRIRKRPPRLPRPRPRPNLYPRP | -0.111
RRIRKRPPRLPRPRPRPNMVPRP | 0.114
RRIRKRPPRLPRPRPRPNPQPRP | 0.463
RRIRKRPPRLPRPRPRPNQVPRP | -0.0821
RRIRKRPPRLPRPRPRPNRLPRP | 0.497
RRIRKRPPRLPRPRPRPNRMPRP | 0.00972
RRIRKRPPRLPRPRPRPNSGPRP | 0.0179
RRIRKRPPRLPRPRPRPNTKPRP | -0.391
RRIRKRPPRLPRPRPRPNTLPRP | -0.0816
RRIRKRPPRLPRPRPRPNTMPRP | -0.209
RRIRKRPPRLPRPRPRPNTQPRP | -0.0781
RRIRKRPPRLPRPRPRPNYHPRP | -0.331
RRIRKRPPRLPRPRPRPPAGPRP | 0.989
RRIRKRPPRLPRPRPRPPCSPRP | 0.202
RRIRKRPPRLPRPRPRPPDSPRP | 0.189
RRIRKRPPRLPRPRPRPPECPRP | 0.0514
RRIRKRPPRLPRPRPRPPEQPRP | 0.0815
